# From publication PMC11787825
# Numbering of substitutions follows the chain as printed. Where two headings read alike, the source gives them in different places.
# B1: PT1 (dsDNA)
# DNA 1: GATTACGAATTCGAGCTCGGTACCCGGGGATC
# DNA 2: CACACACACACACACACAGATCCCCGGGTACCGAGCTCGAATTCGTAATC
# modifications: primer 3'-terminal dideoxycytidine (ddC)
# B2: PT2 (dsDNA)
# DNA 1: B1 DNA 1
# DNA 2: B1 DNA 2 with A18C
# modifications: primer 3'-terminal dideoxycytidine (ddC)
# B3: PT3 (dsDNA)
# DNA 1: GATTACGAATTCGAGCTCGGTACCCGGGGATCG
# DNA 2: B1 DNA 2
# modifications: phosphorothioate bonds at primer ends (after nt 1 and before the 3'-terminal G)
# Experiments:
# Experiment in all cases: cryo-EM structure
# [1] = target: T1, HSV-1 Pol (PolΔN42);UL42 (UL42ΔC340) (Herpes simplex virus 1 (strain …, UniProt H9E937;H9E949 43-1235;2-340, |))
# [2] = target: T1, HSV-1 Pol (PolΔN42);UL42 (UL42ΔC340); remark: listed apart in the source
# [3] = target: T1, HSV-1 Pol (PolΔN42);UL42 (UL42ΔC340); remark: listed apart in the source
binder,measurement,setting,value
B1,binding result,[1],binds
B2,binding result,[2],binds
B3,binding result,[3],binds
